T1: p57^Kip2 as used in the in vitro phosphorylation assay
T1 sequence (P49918 1-316, species assumed, looked up): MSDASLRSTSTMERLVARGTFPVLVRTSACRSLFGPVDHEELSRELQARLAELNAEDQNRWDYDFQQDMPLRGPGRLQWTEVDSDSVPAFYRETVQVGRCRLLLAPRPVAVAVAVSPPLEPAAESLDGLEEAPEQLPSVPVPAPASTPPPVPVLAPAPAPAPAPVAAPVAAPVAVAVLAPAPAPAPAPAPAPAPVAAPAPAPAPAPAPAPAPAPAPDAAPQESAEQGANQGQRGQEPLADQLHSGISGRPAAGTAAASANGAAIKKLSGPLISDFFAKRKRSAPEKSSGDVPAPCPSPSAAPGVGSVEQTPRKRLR

T2: NH2-terminal GST-p27^Kip1
T2 chain: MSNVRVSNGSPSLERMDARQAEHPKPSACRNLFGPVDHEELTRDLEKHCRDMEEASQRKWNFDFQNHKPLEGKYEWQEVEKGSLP

B1: in vitro translated hKIS from pcDNA3.1/His ([35S]-methionine-labeled or unlabeled, epitope-tagged) (protein)
chain: MAGSGCAWGAEPPRFLEAFGRLWQVQSRLGSGSSASVYRVRCCGNPGSPPGALKQFLPPGTTGAAASAAEYGFRKERAALEQLQGHRNIVTLYGVFTIHFSPNVPSRCLLLELLDVSVSELLLYSSHQGCSMWMIQHCARDVLEALAFLHHEGYVHADLKPRNILWSAENECFKLIDFGLSFKEGNQDVKYIQTDGYRAPEAELQNCLAQAGLQSDTECTSAVDLWSLGIILLEMFSGMKLKHTVRSQEWKANSSAIIDHIFASKAVVNAAIPAYHLRDLIKSMLHDDPSRRIPAEMALCSPFFSIPFAPHIEDLVMLPTPVLRLLNVLDDDYLGNEEEYEDVVEDVKEECQKYGPVVSLLVPKENPGRGQVFVEYANAGDSKAAQKLLTGRMFDGKFVVATFYPLSAYKRGYLYQTLL
B2: hKIS (human KIS), clone C21, fused to the GAL4 activating domain (enzyme, not shown: large carriers)
chain: B1 chain
notes: Prey of the yeast two-hybrid assay; also called the clones
B3: pLAM5′ (human laminC/GAL4 DNA binding domain) (other, UniProt P04386 1-147, looked up)
chain: MKLLSSIEQACDICRLKKLKCSKEKPKCAKCLKNNWECRYSPKTKRSPLTRAHLTEVESRLERLEQLFLLIFPREDLDMILKMDSLQDIKALLTGLFVQDNVNKDAVTDRLASVETDMPLTLRQHRISATSSSEESSNKGQRQLTVSSEEVVSREVSGIKAAYEAELGDARKTLDSVAKERARLQLELSKVREEFKELKARNTKKEGDLIAAQARLKDLEALLNSKEAALSTALSEKRTLEGELHDLRGQVAKLEAALGEAKKQLQDEMLRRVDAENRLQTMKEELDFQKNIYSEELRETKRRHETRLVEID
notes: Bought control plasmid (Clontech)

Assays:
[1] = biological target: p16^Ink4 as used in the in vitro phosphorylation assay
[2] = biological target: purified recombinant p27^Kip1 (bacterial-produced)
[3] = biological target: T1, p57^Kip2 as used in the in vitro …
[4] = biological target: p21^Cip1 as used in the in vitro phosphorylation assay
[5] = biological target: NH2-terminal GST-p27^Kip1 with serine 10 to alanine (pGSTp27^Kip1 NH2S1OM)
[6] = biological target: T2, NH2-terminal GST-p27^Kip1
[7] = biological target: T3, pVA3 (murine p53/GAL4 DNA binding domain) (murine, UniProt P04386 1-147; P02340 72-390); experiment: yeast two-hybrid, beta-galactosidase staining
T3 construct: Bought control plasmid (Clontech)

[8] = biological target: B2; experiment: yeast two-hybrid, beta-galactosidase staining

With B1 the “in vitro phosphorylation in the presence of ^32P-ATP” value [1] was “hKIS did not phosphorylate p57^Kip2, p21^Cip1 or p16^Ink4”, the “in vitro phosphorylation in the presence of ^32P-ATP” value [2] was “hKIS readily phosphorylated bacterial-produced p27^Kip1” and the “in vitro phosphorylation in the presence of ^32P-ATP” value [3] was “hKIS did not phosphorylate p57^Kip2, p21^Cip1 or p16^Ink4”. For the same binder, the “in vitro phosphorylation in the presence of ^32P-ATP” value [4] was “hKIS did not phosphorylate p57^Kip2, p21^Cip1 or p16^Ink4”, the “in vitro phosphorylation assay” value [5] was “mutation of serine 10 to alanine (S10A) abolished phosphorylation of GST-p27^Kip1” and the “in vitro phosphorylation assay” value [6] was “phosphorylation of GST-p27^Kip1 was detected in the NH2.terminal region of the protein”.

B2: no binding [7].

B3: no binding [8].
